Source: US20220211858A1, “TUBULAR SUPRAMOLECULAR POLYMERS” (priority 2019, published 2022)
Like-named read-outs stand apart in the source and are kept apart here.

Columns and labels:
[1] = Maximum tolerated dose (MTD) dose escalation study; format: in vivo, athymic nude mice; settings: for Maximum % BW loss: n=3
Description: Maximum tolerated dose (MTD) studies. MTD of SAPD 1 has been previously determined in our lab (Table 1). MTDs of other SAPDs were determined by dose escalation studies in healthy female athymic nude mice (Charles River, 12-13 weeks old). A single intravenous (i.v.) injection of SAPD was dosed at day 1 and the body weights of each mouse (n=3) were recorded every day for six days and every the other day until two weeks. The dosing volume was determined based upon a ratio of 200 μL for a 20 g mouse. Doses of SAPDs used in the studied were 108, 72, 54, 45, 36 and 18 mg/kg (CPT equivalent).

[2] = CD measurement of SAPD stability in plasma/serum environments; format: physicochemical, rat; settings: 200 μM in rat plasma, FBS, mice plasma, aged overnight
Description: CD measurement of SAPDs in physiological environments. Stock solutions of SAPDs were prepared at 2 mM and aged overnight. The solutions were diluted to 200 μM in 10% fetal bovine serum (FBS), 10% mice plasma and 10% rat plasma, aged overnight before CD measurement. To study the kinetic stability of the assembled SAPDs upon dilution, the stock solutions of SAPD 1 and 2 were diluted to 100 μM, 50 μM, 25 μM, 10 μM, and 5 μM in 10% rat plasma. The CD spectra were recorded at 5 min, 1 h, 4 h, and 12 h. All the CD spectra were recorded from 300 to 450 nm using a 1 mm path length quartz cell. The spectra were collected and normalized from ellipticity (mdeg) to molar ellipticity (deg·cm2·dmol^−1).
Stability of SAPDs in Protein Environments. The interactions of nanoparticles with serum proteins are known to impact the disassociation of supramolecular assemblies in biologically relevant environment. To assess the stability of assembled SAPDs in more complex biological media, we performed CD experiments to investigate their long-term stability in various serum environments. SAPDs solutions (2 mM) were diluted using rat plasma (FIG. 21C), fetal bovine serum (FBS), and mice plasma to yield a final concentration of 200 μM, which were then aged overnight before CD measurement was taken. […] We also performed experiments to assess their kinetic stability upon plasma dilution, mimicking the dissociation process of SPs after intravenous injection. Solutions of SAPD 1 and 2 (2 mM) were diluted to 100 μM, 50 μM, 25 μM, 10 μM, and 5 μM in rat plasma, and time-dependent CD spectra were recorded at 5 min, 1 h, 4 h, and 12 h. […] At 12 h, the decrease reached 22% and 33%, respectively.

[3] = Drug release of SAPDs in rat plasma; format: in vitro ADME; settings: rat plasma (10%, v/v), without GSH, read-out: remaining drugs
Description: The drug release in rat plasma (10%, v/v) were performed using similar protocols as those in PBS. To determine the amount of SAPDs and free CPT in each sample, 50 μL of sample was mixed with 200 μL acetonitrile (containing 0.1% TFA) and sonicated for 1 min. The supernatants were collected using centrifugation. All samples were filtered through a 0.22 μm membrane before analysis by a UPLC system (Waters ACQuity™ Ultra Performance LC) equipped with a reverse-phase column (ACQuity UPLC@BEH, C18, 1.7 μm 2.1×150 mm) and a fluorescence detector (ACQuity FLR, Ex/Em=362/430 nm). The column was flushed with a mixture of water (0.1% TFA) and acetonitrile (0.1% TFA) at 0.3 mL/min with the following gradient: 5% acetonitrile (0-1 min), 5-95% acetonitrile (1-5 min), 95% acetonitrile (5-8 min), 95-5% acetonitrile (8-9 min), and 5% acetonitrile (9-10 min). Peaks of SAPDs and free CPT were monitored and recorded, and the concentrations were calculated by comparing with standard curves.

[4] = test system: HT-29 cells
Source text: Antitumor efficacy study of SAPDs at the same dose on a HT-29 tumor model. […] When the averaged tumor size reached 75-95 mm^3, mice were randomly divided into six groups. […] The tumor volumes and body weights were monitored and recorded every two or three days. The tumor volume was estimated by measuring the length and width with calipers and using the equation “tumor volume=(length×width^2)/2”. Mice were euthanized once the tumor volume reached 1000 mm^3.

[5] = Circulation studies of SAPDs in rats; format: in vivo, Sprague Dawley (SD) rats; settings: 10 mg/kg i.v.
Description: Circulation studies of SAPDs in rats. Female Sprague Dawley (SD) Rats (200-250 g) were randomly grouped into four groups with three rats in each group. SAPDs were all intravenously (i.v.) dosed at 10 mg/kg (CPT equivalent). The dosing volumes of SAPDs were estimated by a ratio of 1 mL for a 200 g rat. The blood samples were collected at 5 min, 15 min, 30 min, 1 h, 2 h, 4 h, 8 h, and 12 h, which were immediately centrifuged to take plasma for further analysis and stored at −80° C. The plasma proteins were precipitated using similar protocols as mentioned above in drug release section and the determination of SAPDs and free CPT in the plasma by UPLC also used the same conditions.
Estimation of SAPD concentration in plasma upon injection. To calculation the concentration after dilution, we simply set the following parameters: body weight of mice (20 g), dosing volume of mice (200 μL), blood volume of mice (1.8 mL), body weight of rat (200 g), dosing volume of mice (1 mL), blood volume of mice (18 mL) and the dosage for both mice and rats (10 mg/kg).

[6] = test system: HT-29 cells; assay: Antitumor efficacy of SAPDs at near MTD on a HT-29 tumor model; settings: for mean tumor volume: day 28, SAPD 1 12 mg/kg, SAPD 2-4 36 mg/kg i.v. days 1, 5, 9, irinotecan 100 mg/kg i.p. days 1, 8, 15
Description: Antitumor efficacy study of SAPDs at near MTD on a HT-29 tumor model. HT-29 tumor model was established as described above. When the averaged tumor size reached 70-110 mm^3, mice were randomly divided into six groups (n=5 for each group). Four different SAPDs were all i.v. dosed at near or slightly lower than their estimated MTDs. […] The irinotecan (i.p. injection, 100 mg/kg at days 1, 8 and 15) and the PBS groups were used as controls. All other protocols were similar to those in the above-mentioned efficacy study.

[7] = female, athymic nude, mouse, in vivo, iv, single i.v. injection, CPT equivalent, healthy athymic nude mice
[8] = single i.v. dose 18 mg/kg (CPT equivalent)
[9] = single i.v. dose 36 mg/kg (CPT equivalent)
[10] = single i.v. dose 45 mg/kg (CPT equivalent)
[11] = single i.v. dose 54 mg/kg (CPT equivalent)
[12] = single i.v. dose 72 mg/kg (CPT equivalent)

CC[C@]1(OC(=O)OCCSSC[C@@H](NC(C)=O)C(=O)N[C@@H](CCCCNC(=O)[C@@H](CSSCCOC(=O)O[C@]2(CC)C(=O)OCc3c2cc2n(c3=O)Cc3cc4ccccc4nc3-2)NC(C)=O)C(=O)N[C@@H](CCCCNC(=O)CCOCCOCCOCCOCCOC)C(=O)N[C@@H](CCCCNC(=O)CCOCCOCCOCCOCCOC)C(=O)N[C@@H](CCCCNC(=O)CCOCCOCCOCCOCCOC)C(=O)N[C@@H](CCCCNC(=O)CCOCCOCCOCCOCCOC)C(N)=O)C(=O)OCc2c1cc1n(c2=O)Cc2cc3ccccc3nc2-1 [SAPD 2]
MTD at 2 weeks [1, 7]: 54 mg/kg
Survival/Total ([1]; single i.v. dose 18 mg/kg): 3/3
day of maximum BW loss ([1]; single i.v. dose 18 mg/kg): 5 days
Maximum % BW loss [1, 8]: 6.2%
Survival/Total ([1]; single i.v. dose 36 mg/kg): 3/3
day of maximum BW loss ([1]; single i.v. dose 36 mg/kg): 6 days
Maximum % BW loss [1, 9]: 2.1%
Survival/Total ([1]; single i.v. dose 45 mg/kg): 3/3
day of maximum BW loss ([1]; single i.v. dose 45 mg/kg): 2 days
Maximum % BW loss [1, 10]: 4.0%
Survival/Total ([1]; single i.v. dose 54 mg/kg): 3/3
day of maximum BW loss ([1]; single i.v. dose 54 mg/kg): 2 days
Maximum % BW loss [1, 11]: 3.5%
Survival/Total ([1]; single i.v. dose 72 mg/kg): 2/3
day of maximum BW loss ([1]; single i.v. dose 72 mg/kg): 2 days
Maximum % BW loss [1, 12]: 11.4%
Survival/Total ([1]; single i.v. dose 108 mg/kg): 0/3
change of CD absorptions versus aqueous solution [2]: no noticeable changes
remaining at 96 h [3]: 78%
median survival ([4]; SAPDs 10 mg/kg i.v. days 1, 5, 9, 13, irinotecan 100 mg/kg i.p. days 1, 8, 15): 46 days
mean tumor volume ([4]; day 25, SAPDs 10 mg/kg (CPT equivalent) i.v. days 1, 5, 9, 13, irinotecan 100 mg/kg i.p. days 1, 8, 15): 255 mm^3
CPT remained in the bounded form ([5]; 5 min): 28%
total CPT concentration in plasma ([5]; 1 h): 7.0 µM
total CPT concentration in plasma ([5]; 2 h): 2.2 µM
treatment related death ([6]; 36 mg/kg i.v. days 1, 5, 9, n=5): one treatement related death
mean tumor volume [6]: 330 mm^3

CC[C@]1(OC(=O)OCCSSC[C@@H](NC(C)=O)C(=O)N[C@@H](CCCCNC(=O)[C@@H](CSSCCOC(=O)O[C@]2(CC)C(=O)OCc3c2cc2n(c3=O)Cc3cc4ccccc4nc3-2)NC(C)=O)C(=O)N[C@@H](CCCCNC(=O)CCOCCOCCOCCOCCOC)C(=O)N[C@@H](CCCCNC(=O)CCOCCOCCOCCOCCOC)C(=O)N[C@@H](CCCCNC(=O)CCOCCOCCOCCOCCOC)C(=O)N[C@@H](CCCCNC(=O)CCOCCOCCOCCOCCOC)C(=O)N[C@@H](CCCCNC(=O)CCOCCOCCOCCOCCOC)C(=O)N[C@@H](CCCCNC(=O)CCOCCOCCOCCOCCOC)C(N)=O)C(=O)OCc2c1cc1n(c2=O)Cc2cc3ccccc3nc2-1 [SAPD 3]
MTD [1, 7]: 72 mg/kg
Survival/Total ([1]; single i.v. dose 18 mg/kg): 3/3
day of maximum BW loss ([1]; single i.v. dose 18 mg/kg): 4 days
Maximum % BW loss [1, 8]: 5.5%
Survival/Total ([1]; single i.v. dose 36 mg/kg): 3/3
day of maximum BW loss ([1]; single i.v. dose 36 mg/kg): 4 days
Maximum % BW loss [1, 9]: 1.4%
Survival/Total ([1]; single i.v. dose 45 mg/kg): 3/3
day of maximum BW loss ([1]; single i.v. dose 45 mg/kg): 4 days
Maximum % BW loss [1, 10]: 2.5%
Survival/Total ([1]; single i.v. dose 54 mg/kg): 3/3
day of maximum BW loss ([1]; single i.v. dose 54 mg/kg): 1 days
Maximum % BW loss [1, 11]: 1.6%
Survival/Total ([1]; single i.v. dose 72 mg/kg): 3/3
Maximum % BW loss [1, 12]: 0%
Survival/Total ([1]; single i.v. dose 108 mg/kg): 2/3
change of CD absorptions versus aqueous solution [2]: some slight changes
remaining at 96 h [3]: 15%
mean tumor volume ([4]; mouse, in vivo): 304 mm^3
median survival ([4]; mouse, in vivo): 42 days
total CPT concentration in plasma ([5]; 1 h): 2.8 µM
total CPT concentration in plasma ([5]; 2 h): 1.3 µM
mean tumor volume [6]: 322 mm^3
